# Results: patent US11130793B2, “GLP-1/GLP-2 dual agonists” (Zealand Pharma A/S, priority 2016, dated 2021)
# Square brackets hold non-standard residues; d marks the D form. Aib = CC(C)(N)C(=O)O
# Key:
# [1] = molecular target: human glucagon-like peptide 1 receptor (GLP-1R) (human, UniProt P43220); experiment: cell-based or functional assay
# [2] = molecular target: T1, human GLP-2 receptor (hGLP2-R) (human, UniProt O95838); experiment: cell-based or functional assay
# T1 sequence: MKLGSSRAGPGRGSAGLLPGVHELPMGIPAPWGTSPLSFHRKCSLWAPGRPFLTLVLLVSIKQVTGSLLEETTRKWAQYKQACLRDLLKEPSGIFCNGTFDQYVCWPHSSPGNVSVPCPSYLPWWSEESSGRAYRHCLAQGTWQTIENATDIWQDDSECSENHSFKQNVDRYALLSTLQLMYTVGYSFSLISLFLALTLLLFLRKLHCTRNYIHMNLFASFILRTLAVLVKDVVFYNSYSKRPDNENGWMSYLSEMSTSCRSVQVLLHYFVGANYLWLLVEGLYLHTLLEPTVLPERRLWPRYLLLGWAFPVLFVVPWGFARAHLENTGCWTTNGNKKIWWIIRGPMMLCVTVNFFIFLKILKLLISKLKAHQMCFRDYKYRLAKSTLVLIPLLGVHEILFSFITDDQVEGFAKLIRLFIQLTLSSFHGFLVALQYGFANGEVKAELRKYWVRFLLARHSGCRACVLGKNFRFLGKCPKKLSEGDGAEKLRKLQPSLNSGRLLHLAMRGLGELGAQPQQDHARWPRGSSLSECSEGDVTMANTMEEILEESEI
EC50 GLP-1 (nM); cAMP AlphaScreen [1] [nM],EC50 GLP-2 (nM); cAMP AlphaScreen [2] [nM],Binder
1.4,0.05,H-HGEGSFSSELATILDEQAARDFIAWLIQHKITD-NH2 [Compound 40]
0.008,0.043,H-HGEGTFTSELATILDEQAARDFIAWLIAHKITD-OH [Compound 38]
0.03,0.96,H-H[Aib]EGTFSSELSTILEEQASREFIAWLIAHKITE-OH (SMILES CC[C@H](C)[C@H](NC(=O)[C@H](CC(C)C)NC(=O)[C@H](Cc1c[nH]c2ccccc12)NC(=O)[C@H](C)NC(=O)[C@@H](NC(=O)[C@H](Cc1ccccc1)NC(=O)[C@H](CCC(=O)O)NC(=O)[C@H](CCCNC(=N)N)NC(=O)[C@H](CO)NC(=O)[C@H](C)NC(=O)[C@H](CCC(N)=O)NC(=O)[C@H](CCC(=O)O)NC(=O)[C@H](CCC(=O)O)NC(=O)[C@H](CC(C)C)NC(=O)[C@@H](NC(=O)[C@@H](NC(=O)[C@H](CO)NC(=O)[C@H](CC(C)C)NC(=O)[C@H](CCC(=O)O)NC(=O)[C@H](CO)NC(=O)[C@H](CO)NC(=O)[C@H](Cc1ccccc1)NC(=O)[C@@H](NC(=O)CNC(=O)[C@H](CCC(=O)O)NC(=O)C(C)(C)NC(=O)[C@@H](N)Cc1c[nH]cn1)[C@@H](C)O)[C@@H](C)O)[C@@H](C)CC)[C@@H](C)CC)C(=O)N[C@@H](C)C(=O)N[C@@H](Cc1c[nH]cn1)C(=O)N[C@@H](CCCCN)C(=O)N[C@H](C(=O)N[C@H](C(=O)N[C@@H](CCC(=O)O)C(=O)O)[C@@H](C)O)[C@@H](C)CC) [Compound 39]
0.078,0.026,H-H[Aib]EGSFSSELATILDEQAARDFIAWLIQHKITD-OH (SMILES CC[C@H](C)[C@H](NC(=O)[C@H](Cc1ccccc1)NC(=O)[C@H](CC(=O)O)NC(=O)[C@H](CCCNC(=N)N)NC(=O)[C@H](C)NC(=O)[C@H](C)NC(=O)[C@H](CCC(N)=O)NC(=O)[C@H](CCC(=O)O)NC(=O)[C@H](CC(=O)O)NC(=O)[C@H](CC(C)C)NC(=O)[C@@H](NC(=O)[C@@H](NC(=O)[C@H](C)NC(=O)[C@H](CC(C)C)NC(=O)[C@H](CCC(=O)O)NC(=O)[C@H](CO)NC(=O)[C@H](CO)NC(=O)[C@H](Cc1ccccc1)NC(=O)[C@H](CO)NC(=O)CNC(=O)[C@H](CCC(=O)O)NC(=O)C(C)(C)NC(=O)[C@@H](N)Cc1c[nH]cn1)[C@@H](C)O)[C@@H](C)CC)C(=O)N[C@@H](C)C(=O)N[C@@H](Cc1c[nH]c2ccccc12)C(=O)N[C@@H](CC(C)C)C(=O)N[C@H](C(=O)N[C@@H](CCC(N)=O)C(=O)N[C@@H](Cc1c[nH]cn1)C(=O)N[C@@H](CCCCN)C(=O)N[C@H](C(=O)N[C@H](C(=O)N[C@@H](CC(=O)O)C(=O)O)[C@@H](C)O)[C@@H](C)CC)[C@@H](C)CC) [Compound 41]

# Further lines, the binder ahead of its results:
Binder,EC50 GLP-1 (nM); cAMP AlphaScreen [1] [nM],EC50 GLP-2 (nM); cAMP AlphaScreen [2] [nM]
H-H[Aib]EGTFTSELATILDEQAARDFISWLIAHKITD-OH (SMILES CC[C@H](C)[C@H](NC(=O)[C@H](CC(C)C)NC(=O)[C@H](Cc1c[nH]c2ccccc12)NC(=O)[C@H](CO)NC(=O)[C@@H](NC(=O)[C@H](Cc1ccccc1)NC(=O)[C@H](CC(=O)O)NC(=O)[C@H](CCCNC(=N)N)NC(=O)[C@H](C)NC(=O)[C@H](C)NC(=O)[C@H](CCC(N)=O)NC(=O)[C@H](CCC(=O)O)NC(=O)[C@H](CC(=O)O)NC(=O)[C@H](CC(C)C)NC(=O)[C@@H](NC(=O)[C@@H](NC(=O)[C@H](C)NC(=O)[C@H](CC(C)C)NC(=O)[C@H](CCC(=O)O)NC(=O)[C@H](CO)NC(=O)[C@@H](NC(=O)[C@H](Cc1ccccc1)NC(=O)[C@@H](NC(=O)CNC(=O)[C@H](CCC(=O)O)NC(=O)C(C)(C)NC(=O)[C@@H](N)Cc1c[nH]cn1)[C@@H](C)O)[C@@H](C)O)[C@@H](C)O)[C@@H](C)CC)[C@@H](C)CC)C(=O)N[C@@H](C)C(=O)N[C@@H](Cc1c[nH]cn1)C(=O)N[C@@H](CCCCN)C(=O)N[C@H](C(=O)N[C@H](C(=O)N[C@@H](CC(=O)O)C(=O)O)[C@@H](C)O)[C@@H](C)CC) [Compound 34],0.005,0.049
H-H[Aib]EGTFTSELATILDEQAARDFINWLKSYKITD-OH (SMILES CC[C@H](C)[C@H](NC(=O)[C@H](Cc1ccccc1)NC(=O)[C@H](CC(=O)O)NC(=O)[C@H](CCCNC(=N)N)NC(=O)[C@H](C)NC(=O)[C@H](C)NC(=O)[C@H](CCC(N)=O)NC(=O)[C@H](CCC(=O)O)NC(=O)[C@H](CC(=O)O)NC(=O)[C@H](CC(C)C)NC(=O)[C@@H](NC(=O)[C@@H](NC(=O)[C@H](C)NC(=O)[C@H](CC(C)C)NC(=O)[C@H](CCC(=O)O)NC(=O)[C@H](CO)NC(=O)[C@@H](NC(=O)[C@H](Cc1ccccc1)NC(=O)[C@@H](NC(=O)CNC(=O)[C@H](CCC(=O)O)NC(=O)C(C)(C)NC(=O)[C@@H](N)Cc1c[nH]cn1)[C@@H](C)O)[C@@H](C)O)[C@@H](C)O)[C@@H](C)CC)C(=O)N[C@@H](CC(N)=O)C(=O)N[C@@H](Cc1c[nH]c2ccccc12)C(=O)N[C@@H](CC(C)C)C(=O)N[C@@H](CCCCN)C(=O)N[C@@H](CO)C(=O)N[C@@H](Cc1ccc(O)cc1)C(=O)N[C@@H](CCCCN)C(=O)N[C@H](C(=O)N[C@H](C(=O)N[C@@H](CC(=O)O)C(=O)O)[C@@H](C)O)[C@@H](C)CC) [Compound 36],0.007,0.11
H-H[Aib]EGTFTSELATILDEQAARDFINWLKAHKITD-OH (SMILES CC[C@H](C)[C@H](NC(=O)[C@H](Cc1ccccc1)NC(=O)[C@H](CC(=O)O)NC(=O)[C@H](CCCNC(=N)N)NC(=O)[C@H](C)NC(=O)[C@H](C)NC(=O)[C@H](CCC(N)=O)NC(=O)[C@H](CCC(=O)O)NC(=O)[C@H](CC(=O)O)NC(=O)[C@H](CC(C)C)NC(=O)[C@@H](NC(=O)[C@@H](NC(=O)[C@H](C)NC(=O)[C@H](CC(C)C)NC(=O)[C@H](CCC(=O)O)NC(=O)[C@H](CO)NC(=O)[C@@H](NC(=O)[C@H](Cc1ccccc1)NC(=O)[C@@H](NC(=O)CNC(=O)[C@H](CCC(=O)O)NC(=O)C(C)(C)NC(=O)[C@@H](N)Cc1c[nH]cn1)[C@@H](C)O)[C@@H](C)O)[C@@H](C)O)[C@@H](C)CC)C(=O)N[C@@H](CC(N)=O)C(=O)N[C@@H](Cc1c[nH]c2ccccc12)C(=O)N[C@@H](CC(C)C)C(=O)N[C@@H](CCCCN)C(=O)N[C@@H](C)C(=O)N[C@@H](Cc1c[nH]cn1)C(=O)N[C@@H](CCCCN)C(=O)N[C@H](C(=O)N[C@H](C(=O)N[C@@H](CC(=O)O)C(=O)O)[C@@H](C)O)[C@@H](C)CC) [Compound 35],0.006,0.048
H-H[Aib]EGTFTSELATILDEQAARDFINWLKEQKITD-OH (SMILES CC[C@H](C)[C@H](NC(=O)[C@H](Cc1ccccc1)NC(=O)[C@H](CC(=O)O)NC(=O)[C@H](CCCNC(=N)N)NC(=O)[C@H](C)NC(=O)[C@H](C)NC(=O)[C@H](CCC(N)=O)NC(=O)[C@H](CCC(=O)O)NC(=O)[C@H](CC(=O)O)NC(=O)[C@H](CC(C)C)NC(=O)[C@@H](NC(=O)[C@@H](NC(=O)[C@H](C)NC(=O)[C@H](CC(C)C)NC(=O)[C@H](CCC(=O)O)NC(=O)[C@H](CO)NC(=O)[C@@H](NC(=O)[C@H](Cc1ccccc1)NC(=O)[C@@H](NC(=O)CNC(=O)[C@H](CCC(=O)O)NC(=O)C(C)(C)NC(=O)[C@@H](N)Cc1c[nH]cn1)[C@@H](C)O)[C@@H](C)O)[C@@H](C)O)[C@@H](C)CC)C(=O)N[C@@H](CC(N)=O)C(=O)N[C@@H](Cc1c[nH]c2ccccc12)C(=O)N[C@@H](CC(C)C)C(=O)N[C@@H](CCCCN)C(=O)N[C@@H](CCC(=O)O)C(=O)N[C@@H](CCC(N)=O)C(=O)N[C@@H](CCCCN)C(=O)N[C@H](C(=O)N[C@H](C(=O)N[C@@H](CC(=O)O)C(=O)O)[C@@H](C)O)[C@@H](C)CC) [Compound 37],0.007,0.16
